“Also recorded” adds a separate entry of the source. Bridge positions count the residues as written; N and C are the ends. Ends that are not written are not given here.

Here are results for three substances from US10301358B2, “Collagen imaging compositions” (Collagen Medical, LLC, priority 2015, dated 2019).

One data set has as its target T1, collagen (Rattus norvegicus, UniProt P02454+P02466).
T1 construct: from tissue; host or cells: rat heart (normal and infarcted myocardium), in vivo
As to the kind of experiment: Uptake into fibrotic myocardial tissue, rat model of healed myocardial infarction. It is filed as in vivo, Sprague Dawley rats. Particulars: ~1 umol/kg, 3 weeks following infarction, sacrifice 60 minutes post-injection, tissue manganese. How it is done: Tissue samples from normal myocardium and infarcted myocardium are analyzed for manganese and hydroxyproline (collagen) content.

Data set [1] can be described thus: Myocardial perfusion imaging, canine LAD occlusion/reperfusion model. The format is in vivo. How it is done:
To mimic severe ischemia, a canine model is used in which an inflatable variable vascular occluder is placed around the left anterior descending coronary artery (LAD) to allow occlusion and reperfusion. Imaging is performed on a 3T clinical scanner 4 days after implantation of the occluder. The conventional saturation recovery pulse sequence for stress perfusion imaging is compared with a segmented inversion method. The purpose of the segmented inversion method is to leverage the steady-state properties of Compound ID No. 1. This segmented inversion recovery pulse sequence provides greater T1 weighting, higher spatial resolution, and greater myocardial tissue contrast. Additionally, since imaging is delayed, the entire heart can be imaged. After baseline MRI scanning, the balloon is inflated. […]
To assess relative perfusion, labeled microspheres are administered at 3 timepoints in the study. […] At autopsy under ultraviolet light, the hypo-perfused myocardium is differentiated from normal myocardium due to the lack of fluorescence in the hypo-perfused tissue. Based on the fluorescence, a sample of the ischemic territory and a sample of the remote myocardium are taken for ex vivo analysis. These tissue samples are weighed, digested in nitric acid, and analyzed for the elements La, Au, Lu (the three microsphere injections) and manganese (Compound ID No. 1) using ICP-MS. […]

Data set [2] in a line: Uptake into fibrotic liver tissue, bile duct ligated (BDL) rats. The format is in vivo, Sprague-Dawley rats. Particulars: ~7.5 μmol/kg, sacrifice after 90 min, BDL vs sham. How it is done:
Bile duct ligated (BDL) rats are selected to assess the uptake of the complexes in fibrotic liver tissue as compared to sham operated animals. In this model, the common bile duct is surgically tied off and the resultant cholestasis results in fibrosis around the bile ducts. Laparotomy is performed in Sprague-Dawley rats with double ligation of the common bile duct with a section between the two ligatures (2-3% isoflurane anesthesia). […] Fibrosis is evident 15 days after ligation and increases with time up to 30 days after ligation, providing defined endpoints for imaging of moderate and severe fibrosis.
Studies are conducted by injecting Compound ID. No. 1 at a dose ˜7.5 μmol/kg. After 90 min, the animals are sacrificed and the 4 liver lobes and abdominal muscle are removed and the manganese concentration quantified by ICP-MS and collagen content quantified using hydroxyproline concentration.

The next data set in a line: Pharmacokinetics (Rat). The format is in vivo, Sprague Dawley rats. Particulars: 1.3 umol/kg bolus IV, plasma sampled 2-90 minutes post-injection, ICP-MS. On the procedure: Compound ID No. 1 is formulated at pH 7.5 (TRIS buffer) and administered to Sprague Dawley rats (n=2) at dose of 1.3 umol/kg using a bolus IV injection. Plasma is sampled at 2, 5, 15, 30, and 90 minutes post-injection and analyzed for manganese content using ICP-MS.

T1 sequence (P02454 152-1207): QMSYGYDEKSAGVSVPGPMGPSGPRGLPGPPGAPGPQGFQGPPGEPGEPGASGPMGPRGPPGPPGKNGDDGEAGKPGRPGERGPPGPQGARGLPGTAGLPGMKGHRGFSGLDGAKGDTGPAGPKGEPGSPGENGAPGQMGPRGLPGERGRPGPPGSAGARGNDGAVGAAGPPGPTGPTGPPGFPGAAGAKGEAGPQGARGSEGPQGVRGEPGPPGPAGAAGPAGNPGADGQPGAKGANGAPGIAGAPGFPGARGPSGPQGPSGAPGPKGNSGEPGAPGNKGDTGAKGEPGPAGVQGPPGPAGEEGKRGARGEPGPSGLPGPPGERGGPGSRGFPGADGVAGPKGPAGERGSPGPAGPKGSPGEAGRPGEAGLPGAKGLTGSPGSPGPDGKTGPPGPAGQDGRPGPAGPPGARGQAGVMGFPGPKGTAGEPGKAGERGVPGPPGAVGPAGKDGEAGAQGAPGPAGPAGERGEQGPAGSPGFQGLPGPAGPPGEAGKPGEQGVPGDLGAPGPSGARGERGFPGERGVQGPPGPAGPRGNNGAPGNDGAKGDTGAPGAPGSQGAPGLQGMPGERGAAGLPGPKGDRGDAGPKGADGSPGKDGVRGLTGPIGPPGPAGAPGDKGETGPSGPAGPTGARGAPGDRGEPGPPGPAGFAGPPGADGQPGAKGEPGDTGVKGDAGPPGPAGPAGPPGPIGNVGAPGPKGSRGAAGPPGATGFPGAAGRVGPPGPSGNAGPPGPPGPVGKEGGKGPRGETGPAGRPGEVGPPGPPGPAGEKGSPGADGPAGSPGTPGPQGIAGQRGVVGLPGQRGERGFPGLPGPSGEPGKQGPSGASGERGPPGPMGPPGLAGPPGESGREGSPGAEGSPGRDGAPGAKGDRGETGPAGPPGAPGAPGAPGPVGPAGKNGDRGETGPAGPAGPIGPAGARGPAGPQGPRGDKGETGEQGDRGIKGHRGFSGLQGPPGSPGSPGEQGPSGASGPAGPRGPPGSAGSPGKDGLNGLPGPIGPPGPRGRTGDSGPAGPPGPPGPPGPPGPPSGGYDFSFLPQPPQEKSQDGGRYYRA
T1 sequence (P02466 86-1125): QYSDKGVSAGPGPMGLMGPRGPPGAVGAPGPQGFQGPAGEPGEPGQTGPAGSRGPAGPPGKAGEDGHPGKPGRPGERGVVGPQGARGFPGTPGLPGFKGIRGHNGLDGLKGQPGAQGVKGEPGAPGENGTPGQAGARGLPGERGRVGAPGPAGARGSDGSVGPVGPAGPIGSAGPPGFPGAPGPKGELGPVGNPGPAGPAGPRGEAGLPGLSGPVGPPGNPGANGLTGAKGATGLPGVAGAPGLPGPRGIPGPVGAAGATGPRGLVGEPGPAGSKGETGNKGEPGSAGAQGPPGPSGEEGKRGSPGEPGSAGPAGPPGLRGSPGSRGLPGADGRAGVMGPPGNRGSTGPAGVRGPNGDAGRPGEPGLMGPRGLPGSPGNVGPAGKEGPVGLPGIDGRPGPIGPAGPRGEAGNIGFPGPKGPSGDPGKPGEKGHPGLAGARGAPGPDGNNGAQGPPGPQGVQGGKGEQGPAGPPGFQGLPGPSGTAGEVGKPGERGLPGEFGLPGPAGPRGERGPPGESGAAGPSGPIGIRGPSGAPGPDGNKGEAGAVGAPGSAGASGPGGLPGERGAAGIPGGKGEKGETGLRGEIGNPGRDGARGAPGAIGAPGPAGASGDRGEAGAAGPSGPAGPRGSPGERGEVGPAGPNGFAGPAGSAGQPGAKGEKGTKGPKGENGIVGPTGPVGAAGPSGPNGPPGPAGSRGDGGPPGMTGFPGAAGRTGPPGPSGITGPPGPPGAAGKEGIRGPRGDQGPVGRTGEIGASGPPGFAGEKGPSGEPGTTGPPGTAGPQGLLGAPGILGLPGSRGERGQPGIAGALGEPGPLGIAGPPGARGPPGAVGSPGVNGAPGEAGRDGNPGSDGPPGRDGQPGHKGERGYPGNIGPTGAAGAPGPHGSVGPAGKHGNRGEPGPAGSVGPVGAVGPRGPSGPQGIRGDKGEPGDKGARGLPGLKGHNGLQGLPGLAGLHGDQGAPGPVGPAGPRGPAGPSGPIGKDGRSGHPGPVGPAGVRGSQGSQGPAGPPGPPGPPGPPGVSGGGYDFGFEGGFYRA

As to “Compound ID No. 1: MnCDTAGA conjugate of cyclic collagen binding peptide SEQ ID No. 1 (G-K-W-H-C-T-T-K-F-P-H-H-Y-C-L-Y-Bip), amidated C-terminus; FIG. 1 (GKWHCTTKFPHHYCLY; MnCDTAGA conjugate; cyclic disulfide; C-terminal amide)”, in the data set with collagen, the “uptake in normal vs. scarred myocardium” value was “greater binding in fibrotic cardiac tissue as compared with normal myocardial tissue”. For the same substance, the “MR visualization of myocardial perfusion defect” value in data set [1] (7.5 μmol/kg i.v. bolus one minute after coronary artery occlusion, 3T scanner, listed as 1) is given as “readily visualized; also recorded: positive image contrast in the normally perfused myocardium”. Moreover, the “Mn concentration in ischemic vs normal myocardium ex vivo” value in data set [1] (7.5 μmol/kg i.v., sacrifice ca. 120 minutes post injection, ICP-MS) is “preferential deposition in normal vs ischemic cardiac tissue”. The “uptake into fibrotic liver tissue (manganese vs hydroxyproline)” value in data set [2] is “consistent with uptake of Compound ID No. 1 into fibrotic-rich liver tissue”. In addition, in “Pharmacokinetics (Rat)”, the “pharmacokinetic profile (plasma manganese content)” value was “rapid initial blood clearance”.

On to “Compound ID No. 2: MnCDTAGA linked to terminal nitrogen and lysine epsilon amino groups of peptide SEQ ID No. 2, C-terminus —NH2 amide; FIG. 2 (MnCDTAGA-K(MnCDTAGA)WHCTTK(MnCDTAGA)FPHHYCLY; disulfide 4-13 (inferred); not fully specified (C-terminus); printed as K-W-H-C-T-T-K-F-P-H-H-Y-C-L-Y-Bip)”, for which, in the data set with collagen, the “uptake in normal vs. scarred myocardium” value is “greater binding in fibrotic cardiac tissue as compared with normal myocardial tissue”.

Consider “Compound ID No. 4: MnCDTAGA linked to terminal nitrogen or lysine epsilon amino groups of peptide SEQ ID No. 4, C-terminus —NH2 amide; FIG. 4 (KWHCYTKFPHHYCVY; disulfide 4-13 (inferred); not fully specified (C-terminus); printed as K-W-H-C-Y-T-K-F-P-H-H-Y-C-V-Y-Bip; also: MnCDTAGA on N-terminal amine or lysine ε-amino group)”, for which the “uptake in normal vs. scarred myocardium” value in the data set with collagen is recorded as “greater binding in fibrotic cardiac tissue as compared with normal myocardial tissue”.
